In patent publication US5574018A, “Conjugates of vitamin B12 and proteins” (Amgen Inc., priority 1994, dated 1996):
One block for each molecule: values may come before it.

Tests used:
[1] = Stupperich and Nexo 1991; cited from earlier work
[2] = test system: exhypoxic polycythemic mice; experiment: In vivo exhypoxic polycythemic mouse assay of VB12-EPO conjugates; conditions: i.p., vs EPO
Experimental: The hematopoietic activity of EPO after conjugation to 5'-O-[glutaroyl]cyanocobalamin was determined in vivo in exhypoxic polycythemic mice using the procedure of Cotes and Bingham described in Nature, Volume 191, pages 1065-1067 (1961).
The dilution of the complexes prior to intraperitoneal (i.p.) injection was based on the protein content derived from the A280 of the sample.

[3] = target: T1, Porcine IF (Sus scrofa, UniProt A0A8D1ENZ1); experiment: Intrinsic factor binding affinity, competition binding assay with 57Co-cyanocobalamin (Scatchard); conditions: for Kd: association constant, porcine IF, conjugate 123 nM, 30 min
T1 construct: purchased Sigma Chemical Company, St. Louis, Mo
T1 sequence (A0A8D1ENZ1 29-425): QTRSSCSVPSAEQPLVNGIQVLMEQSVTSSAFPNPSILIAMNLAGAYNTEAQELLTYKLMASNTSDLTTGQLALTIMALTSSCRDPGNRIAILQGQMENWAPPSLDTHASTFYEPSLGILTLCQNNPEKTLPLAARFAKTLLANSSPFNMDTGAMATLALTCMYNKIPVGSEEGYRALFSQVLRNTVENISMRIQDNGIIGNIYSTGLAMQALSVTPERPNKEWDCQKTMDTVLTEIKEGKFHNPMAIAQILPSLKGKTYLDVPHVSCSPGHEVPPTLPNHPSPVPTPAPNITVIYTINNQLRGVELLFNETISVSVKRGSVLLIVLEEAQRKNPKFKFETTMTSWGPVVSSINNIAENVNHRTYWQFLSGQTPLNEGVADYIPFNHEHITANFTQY
Experimental: The binding affinity of conjugates of VB12 and therapeutic proteins to intrinsic factor (IF) was determined using a competition binding assay based on the procedure described by Mathan et al. in the Journal of Clinical Investigation, Volume 54, pages 598-608 (1974). The assay was conducted in phosphate buffered saline (PBS) containing 1 mM calcium chloride, 0.5 mM magnesium chloride and 1% by weight of bovine serum albumin (BSA) devoid of IF and cyanocobalamin (Sigma Chemical Company, St. Louis, Mo.). Porcine IF (final concentration 1.845 nM) was added to a large excess of the VB12 -protein conjugate (123 nM), together with a range of concentrations of ^57 Co-cyanocobalamin ([…] to 12.3 nM), specific activity 10-20 μCi/μg, in a final volume of 600 μl of PBS. The solution was vortexed and incubated at room temperature for thirty minutes, before adding 1 ml of freshly prepared dextran-coated charcoal (0.5% by weight of charcoal, 0.1% by weight of dextran in PBS) at 4° C. After incubation for ten minutes, the mixture was centrifuged for fifteen minutes at 1000×G (2500 rpm) and 4° C. in a IEC Centra-8R benchtop centrifuge, VWR Scientific, South Plainfield, N.J. The supernatant was decanted from the resulting pellet and assayed in a Cobra 2000 Gamma counter (Hewlett-Packard, Palo Alto, Calif.) to determine the amount of bound ^57 Co-cyanocobalamin.
The ratio of bound to free ^57 Co-cyanocobalamin versus the bound concentration of ^57 Co-cyanocobalamin was plotted according to the method of Scatchard, Annals of the New York Academy of Science, Volume 51, pages 660-672 (1949).
-Slope=-Kapp =-KL /(1+Kc [Lf ])
Kc =binding affinity of conjugate
KL =binding affinity of cyanocobalamin
[Lf ]=concentration of unbound conjugate
The use of a large excess of the conjugate permitted the value of [Lf ] to be treated as a constant (123 nM).

[4] = Binding analysis of recombinant rat IF (rrIF)
[5] = test system: mouse bone marrow cells; experiment: In vitro thymidine uptake assay of VB12-G-CSF conjugates; assay type: cell-based; conditions: for Biological Activity of Conjugate, % activity compared to nonconjugated protein: vs G-CSF
Experimental: The bioactivity of VB12 -G-CSF in vitro after conjugation to 5'-O-[glutaroyl]cyanocobalamin was determined by measuring the stimulated in vitro uptake of ^3 H-thymidine into mouse bone marrow cells.
Bone marrow cells were collected from the hind legs of female Balb/C mice by flushing the bone with PBS. The cells were purified on a Ficoll-Paque density gradient (Pharmacia) and cultured in McCoys' 5A medium with 10% fetal bovine serum (FBS), 10 mM sodium pyruvate, 1×minimum essential medium (MEM) amino acids, 40 micromolar (μM) of essential amino acids, 0.04% by weight of sodium bicarbonate, 1×MEM vitamin solution, 10 mM L-glutamine and 0.005% by weight of gentamicin sulfate. After incubation for two hours at 37° C. under a 5% carbon dioxide-containing atmosphere, non-adherent cells were collected in the supernatant and the number of viable cells was counted in a hemocytometer.
A standard curve was prepared over a range from 0.07 to 1500 Units of G-CSF per milliliter (U/ml), and the complexes were diluted to about 0.3 to 30 U/ml prior to being assayed. To a 96-well plate was added, in triplicate, 100 μl of the standard or test material and 100 μl of culture medium containing 4×10^4 non-adherent mouse bone marrow cells. After incubating the plates for sixty eight hours at 37° C. under a 5% carbon dioxide atmosphere, 0.5 μCi of thymidine [methyl-3H], 20 Ci/mmol (NEN, Boston, Mass.) was added to each well. The plates were incubated as before for an additional five hours. The cells were collected on filter paper, rinsed with water (ten times) and ethanol (one time), and then counted in Biofluor scintillation fluid in a beta plate scintillation counter (LKB, Piscataway, N.J., Model 1205-001).
The bioactivity of the test material, in Units per milligram (U/mg), was determined from the standard curve of the G-CSF stimulated uptake of thymidine [methyl-^3 H].

Molecule: native human IF: native human intrinsic factor, literature value
binding affinity (Ka) of native human IF [1]: 2e+10 M⁻¹

Molecule: Example 13: conjugate of 5'-O-[glutaroyl]cyanocobalamin-adipic-1,6-dihydrazide with periodate-treated EPO (through sialic acids)
Biological Activity of Conjugate, % activity compared to nonconjugated protein [2]: 33 ± 14%

Kd [3]: 1.35 nM
Molecule: 5'-O-[glutaroyl]-cyanocobalamin [Example 1]

binding affinity (Ka) of rrIF [4]: 8.58e+09 M⁻¹
B1: rrIF: recombinant form of rat IF produced in Chinese hamster ovary cells (protein, UniProt P17267 19-417, looked up)
Cobalamin binding intrinsic …: STRAQRSCSVPPDQQPWVNGLQLLMENSVTESDLPNPSILIAMNLASTYNLEAQKLLTYQLMASDSADLTNGQLALTIMALTSSCRDPGSKVSILQKNMESWTPSNLGAESSSFYGPALAILALCQKNSEATLPIAVRFAKTLMMESSPFSVDTGAVATLALTCMYNRIPVGSQENYRDLFGQALKVIVDNISLRIKADGIIGDIYSTGLAMQALSVTPEQPTKEWDCEKTMYTILKEIKQGKFQNPMSIAQILPSLKGKTYLDVPQVTCGPDHEVPPTLTDYPTPVPTSISNITVIYTINNQLRGVDLLFNVTIEVSVKSGSVLLAVLEEAQRRNHMFKFETTMTSWGLIVSSINNIAENVKHKTYWEFLSGKTPLGEGVAYYIPFNYEHITANFTQY

Kd [3]: 2.22 nM
B2: Example 2: conjugate of 5'-O-[glutaroyl]cyanocobalamin with G-CSF via the N-hydroxysuccinimide derivative (conjugate, UniProt P09919 31-207, looked up)
Granulocyte …: TPLGPASSLPQSFLLKCLEQVRKIQGDGAALQEKLVSECATYKLCHPEELVLLGHSLGIPWAPLSSCPSQALQLAGCLSQLHSGLFLYQGLLQALEGISPELGPTLDTLQLDVADFATTIWQQMEELGMAPALQPTQGAMPAFASAFQRRAGGVLVASHLQSFLEVSYRVLRHLAQP
modifications: cyanocobalamin conjugate
notes: conjugate of 5'-O-[glutaroyl]cyanocobalamin with G-CSF via the N-hydroxysuccinimide derivative

Kd [3]: 4 nM
B3: Example 7: conjugate of 5'-O-[glutaroyl]cyanocobalamin with G-CSF via 12-aminododecylamido-dithiopyridylpropionate (conjugate, UniProt P09919 31-207, looked up)
Granulocyte …: TPLGPASSLPQSFLLKCLEQVRKIQGDGAALQEKLVSECATYKLCHPEELVLLGHSLGIPWAPLSSCPSQALQLAGCLSQLHSGLFLYQGLLQALEGISPELGPTLDTLQLDVADFATTIWQQMEELGMAPALQPTQGAMPAFASAFQRRAGGVLVASHLQSFLEVSYRVLRHLAQP
modifications: cyanocobalamin conjugate via disulfide linker
notes: conjugate of 5'-O-[glutaroyl]cyanocobalamin with G-CSF via 12-aminododecylamido-dithiopyridylpropionate
Biological Activity of Conjugate, % activity compared to nonconjugated protein [5]: 33%

retention of non-conjugated VB12 binding affinity [3]: 1.6%
Kd [3]: 10.8 nM
B4: Example 8: conjugate of 5'-O-[glutaroyl]cyanocobalamin with a polyethylene glycol derivative of G-CSF (conjugate, UniProt P09919 31-207, looked up)
Granulocyte …: TPLGPASSLPQSFLLKCLEQVRKIQGDGAALQEKLVSECATYKLCHPEELVLLGHSLGIPWAPLSSCPSQALQLAGCLSQLHSGLFLYQGLLQALEGISPELGPTLDTLQLDVADFATTIWQQMEELGMAPALQPTQGAMPAFASAFQRRAGGVLVASHLQSFLEVSYRVLRHLAQP
modifications: PEG; cyanocobalamin conjugate
notes: conjugate of 5'-O-[glutaroyl]cyanocobalamin with a polyethylene glycol derivative of G-CSF
Biological Activity of Conjugate, % of G-CSF [5]: 4.4 % of G-CSF
Biological Activity of Conjugate, % of PEG-G-CSF [5]: 38 % of PEG-G-CSF

Kd [3]: 1.89 nM
B5: Example 10: conjugate with G-CSF via N-hydroxysuccinimidyl ester of 5'-O-[glutaroyl]cyanocobalamin-8-aminocaprylic acid (conjugate, UniProt P09919 31-207, looked up)
Granulocyte …: TPLGPASSLPQSFLLKCLEQVRKIQGDGAALQEKLVSECATYKLCHPEELVLLGHSLGIPWAPLSSCPSQALQLAGCLSQLHSGLFLYQGLLQALEGISPELGPTLDTLQLDVADFATTIWQQMEELGMAPALQPTQGAMPAFASAFQRRAGGVLVASHLQSFLEVSYRVLRHLAQP
modifications: cyanocobalamin conjugate via aminocaprylic linker
notes: conjugate with G-CSF via N-hydroxysuccinimidyl ester of 5'-O-[glutaroyl]cyanocobalamin-8-aminocaprylic acid
Biological Activity of Conjugate, % activity compared to nonconjugated protein [5]: 60%
